Each block holds one binder with its values, some of them ahead of it.
Experiments:
[1] = target: T1, Carcinoembryonic antigen (CEA) (human, UniProt P06731 35-685); assay: flow cytometry on MKN45 cells (CEA), hemibody mixed 1:1 with human ISO control, detected with anti-human IgG(H+L) (FITC in the legend box, A488 in the title)
T1 construct: whole, on cells; also called Carcinoembryonic antigen-related cell adhesion molecule 5; CEACAM5
T1 sequence (looked up): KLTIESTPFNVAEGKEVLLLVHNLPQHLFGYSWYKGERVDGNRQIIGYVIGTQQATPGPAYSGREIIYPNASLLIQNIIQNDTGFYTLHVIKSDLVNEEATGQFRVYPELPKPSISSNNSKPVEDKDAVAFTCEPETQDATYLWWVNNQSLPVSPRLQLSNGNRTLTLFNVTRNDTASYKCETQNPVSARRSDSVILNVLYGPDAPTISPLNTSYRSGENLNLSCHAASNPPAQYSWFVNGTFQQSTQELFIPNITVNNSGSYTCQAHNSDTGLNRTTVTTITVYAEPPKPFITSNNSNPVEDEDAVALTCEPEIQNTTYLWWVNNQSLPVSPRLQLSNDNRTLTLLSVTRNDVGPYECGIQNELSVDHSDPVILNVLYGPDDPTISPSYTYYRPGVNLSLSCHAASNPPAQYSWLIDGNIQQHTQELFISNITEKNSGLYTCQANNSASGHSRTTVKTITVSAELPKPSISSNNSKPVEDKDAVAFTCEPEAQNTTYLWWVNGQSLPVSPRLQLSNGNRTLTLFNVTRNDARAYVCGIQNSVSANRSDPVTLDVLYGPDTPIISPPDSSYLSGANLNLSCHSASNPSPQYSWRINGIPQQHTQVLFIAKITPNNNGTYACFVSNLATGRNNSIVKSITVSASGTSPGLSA
Description: To assess the functionality of the split antibodies or hemibodies, MKN-45 cells were detached from the culture vessel using accutase at 37° C. for 10 minutes. Subsequently, the cells were washed twice in PBS, and seeded into 96 well v-bottom plates to a final density of 4×10⁶ cells/well.
Subsequently, the cells were incubated for 1 h on ice and washed twice in PBS. The cell pellet was resuspended and 40 μl/well of detection reagent was added, either <human IgG(H+L)>FITC, (10 μg/ml) or Pb_Dotam_FITC 1:100=>(10 μg/ml) in PBS/5% FCS. After 60 min incubation on ice, the cells were washed twice in PBS and resuspended in 200 μl PBS/5% FCS for measurement of FITC fluorescence using a FACS canto.

[2] = target: T1, Carcinoembryonic antigen (CEA); assay: FACS on MKN-45 cells, detection with anti-huIgG(H+L)-Alexa488
Description: MKN-45 cells were detached from the culture bottle using Trypsin and were counted using a Casy cell counter. After pelleting at 4° C., 300 g the cells were resuspended in FACS Buffer (2.5% FCS in PBS), adjusted to 2.0E+06 cells/mL dispensed to 96-well PP V-bottom-Platte (25 μL/well=5.0E+04Zellen/well).
Both antibodies were added to the cells either separated followed by buffer or combined and incubated at 4° C. for 1 h. The cells were then washed twice in FACS buffer. After washing, the cells were resuspended in 50 μL FACS-buffer containing secondary antibody (<huIgG(H+L)>-Alexa488, c=10 μg/mL) and incubated 1 h at 4° C. The cells were then washed twice in FACS buffer and resuspended in 70 μl/well FACS buffer for measurement using a FACS Canto (BD, Pharmingen).

- EC50 (read off the curve) [1]: ~1 µg/mL
B1: P1AD8749 (antibody, human IgG1, kappa, L234A L235A)
heavy 1: QVQLVQSGAEVKKPGASVKVSCKASGYTFTEFGMNWVRQAPGQGLEWMGWINTKTGEATYVEEFKGRVTFTTDTSTSTAYMELRSLRSDDTAVYYCARWDFAYYVEAMDYWGQGTTVTVSSASTKGPSVFPLAPSSKSTSGGTAALGCLVKDYFPEPVTVSWNSGALTSGVHTFPAVLQSSGLYSLSSVVTVPSSSLGTQTYICNVNHKPSNTKVDKKVEPKSCDKTHTCPPCPAPEAAGGPSVFLFPPKPKDTLMISRTPEVTCVVVDVSHEDPEVKFNWYVDGVEVHNAKTKPREEQYNSTYRVVSVLTVLHQDWLNGKEYKCKVSNKALGAPIEKTISKAKGQPREPQVCTLPPSRDELTKNQVSLSCAVKGFYPSDIAVEWESNGQPENNYKTTPPVLDSDGSFFLVSKLTVDKSRWQQGNVFSCSVMHEALHNHYTQKSLSLSPG
heavy 2: not shown
light: DIQMTQSPSSLSASVGDRVTITCKASAAVGTYVAWYQQKPGKAPKLLIYSASYRKRGVPSRFSGSGSGTDFTLTISSLQPEDFATYYCHQYYTYPLFTFGQGTKLEIKRTVAAPSVFIFPPSDEQLKSGTASVVCLLNNFYPREAKVQWKVDNALQSGNSQESVTEQDSKDSTYSLSSTLTLSKADYEKHKVYACEVTHQGLSSPVTKSFNRGEC
notes: Split antibody (hemibody) with CH1A1A anti-CEA Fabs; also called CEA-split-DOTAM-VH; PRIT Split Antibody with DOTAM-VH

- EC50 [2]: 2.7 µg/mL
B2: P1AF0712 (antibody)
heavy 1: not shown
heavy 2: QVQLVQSGAEVKKPGASVKVSCKASGYTFTEFGMNWVRQAPGQGLEWMGWINTKTGEATYVEEFKGRVTFTTDTSTSTAYMELRSLRSDDTAVYYCARWDFAYYVEAMDYWGQGTTVTVSSASTKGPSVFPLAPSSKSTSGGTAALGCLVKDYFPEPVTVSWNSGALTSGVHTFPAVLQSSGLYSLSSVVTVPSSSLGTQTYICNVNHKPSNTKVDKKVEPKSCDKTHTCPPCPAPEAAGGPSVFLFPPKPKDTLMISRTPEVTCVVVDVSHEDPEVKFNWYVDGVEVHNAKTKPREEQYNSTYRVVSVLTVLHQDWLNGKEYKCKVSNKALGAPIEKTISKAKGQPREPQVCTLPPSRDELTKNQVSLSCAVKGFYPSDIAVEWESNGQPENNYKTTPPVLDSDGSFFLVSKLTVDKSRWQQGNVFSCSVMHEALHNHYTQKSLSLSPGGGGGSGGGGSGGGGSGGGGSQAVVIQESALTTPPGETVTLTCGSSTGAVTASNYANWVQEKPDHLFTGLIGGHNNRPPGVPARFSGSLIGDKAALTIAGTQTEDEAIYFCALWYSDHWVIGGGTKLTVL
light: B1 light
notes: Split antibody with CH1A1A anti-CEA Fabs; Both heavy chains carry VH-CH1; also called CEA specific SPLIT antibody (DOTA-VL); P6_A

- EC50 [2]: 2.3 µg/mL
B3: P1AF0713 (antibody)
heavy 1: B1 heavy 1
heavy 2: not shown
light: B1 light
notes: Split antibody with CH1A1A anti-CEA Fabs; Both heavy chains carry VH-CH1; also called CEA specific SPLIT antibody (DOTA-VH-AST); P6_B

From patent US20240082437A1 (Hoffmann-La Roche, published 2024)
